Where “and” joins values, the source holds several entries; their conditions need not be identical. Identical values can stand only once.
What was measured:
Orai (in HEK-293 cells) = Orai (in HEK-293 cells) (UniProt Q9U6B8); assay: native gel or EMSA
cross-linking = target: the molecule itself; assay: cross-linking
[1] = target: the molecule itself; assay: single-molecule photobleaching

“Orai (in HEK-293 cells) (from UniProt Q9U6B8 1-351) (natural protein)” gave a stoichiometry N (Orai (in HEK-293 cells)) of 2.

B1: HA-tagged Orai (natural protein)
chain: MSVWTTANNSGLETPTKSPITSSVPRAARSSAVITTGNHQQHHFQHVVAAAVAAATSVATGHQFQQQFPLHAHPHPQHHSNSPTGSGSNSNNSAGFQRTSISNSLLQFPPPPPPSSQNQAKPRGHHRTASSSMSQSGEDLHSPTYLSWRKLQLSRAKLKASSKTSALLSGFAMVAMVEVQLDHDTNVPPGMLIAFAICTTLLVAVHMLALMISTCILPNIETVCNLHSISLVHESPHERLHWYIETAWAFSTLLGLILFLLEIAILCWVKFYDLSPPAAWSACVVLIPVMIIFMAFAIHFYRSLVSHKYEVTVSGIRELEMLKEQMEQDHLEHHNNIRNNGMNYGASGDIV
For B1, the “stoichiometry N” value (cross-linking) was 2.

B2: GFP-Flag-Orai (in Xenopus oocytes) (natural protein)
chain: MSVWTTANNSGLETPTKSPITSSVPRAARSSAVITTGNHQQHHFQHVVAAAVAAATSVATGHQFQQQFPLHAHPHPQHHSNSPTGSGSNSNNSAGFQRTSISNSLLQFPPPPPPSSQNQAKPRGHHRTASSSMSQSGEDLHSPTYLSWRKLQLSRAKLKASSKTSALLSGFAMVAMVEVQLDHDTNVPPGMLIAFAICTTLLVAVHMLALMISTCILPNIETVCNLHSISLVHESPHERLHWYIETAWAFSTLLGLILFLLEIAILCWVKFYDLSPPAAWSACVVLIPVMIIFMAFAIHFYRSLVSHKYEVTVSGIRELEMLKEQMEQDHLEHHNNIRNNGMNYGASGDIV
For B2, the “stoichiometry N” value [1] was 2 and 4.

Source: publication PMC2597643 (Nature, 2008)
